The values that follow come from patent US20230070731A1, “COMPOSITIONS FOR SMALL MOLECULE CONTROL OF PRECISE BASE EDITING OF TARGET NUCLEIC ACIDS AND METHODS OF USE THEREOF” (THE TRUSTEES OF THE UNIVERSITY OF PENNSYLVANIA, priority 2020, published 2023).

Holding throughout (test): cell-based or functional assay
Assay [1] concerns the target GFP11-AID*C (AID*-SPL2C) (human) (UniProt Q9GZX7).
In assay [2] the target is AID′-seBE4max fragment containing FKBP12, the DNA deaminase C-terminus, nCas9, and two UGIs in series (human) (UniProt P62942).
The target in assay [3] is evoA1-seBE4max fragment containing FKBP12, the DNA deaminase C-terminus, nCas9, and two UGIs in series (rat) (UniProt P62942).

In turn, “AID*N-optGFP1-10 (AID*-SPL2N) (from UniProt Q9GZX7 1-72)” gave an in vitro deaminase activity on a labeled oligonucleotide substrate (EC50 of enzyme) (fold reduced from intact AID*) in assay [1] of 4.
For the substance “AID′-seBE4max fragment containing the DNA deaminase N-terminus and FRB (from UniProt Q9GZX7 1-72; P42345 2021-2113)”, in assay [2], the GFP^off cells by flow cytometry, targeting sgRNA, no rapamycin turned out to be 7% and the GFP^off cells by flow cytometry, targeting sgRNA, with rapamycin (200 nM) worked out at 35%.
Take “evoA1-seBE4max fragment containing the DNA deaminase N-terminus and FRB (from UniProt P38483 2-78; P42345 2021-2113)”: in assay [3], the fold induction of base editing by rapamycin across seven genomic loci stood at 8.2 fold; the on-target base editing across seven genomic loci (deep sequencing), no rapamycin came out at 3%; the on-target base editing across seven genomic loci (deep sequencing), with rapamycin was found to be 28%.
